Results reported in article PMC8136485, “Were Ancestral Proteins Less Specific?” (Molecular Biology and Evolution, 2021).
Primed or numbered codes have the meaning given here. Ends that are not written are not given here. 5FAM′ = 5-carboxyfluorescein

T1: human S100A5 (human, UniProt P33763 1-92)
T1 sequence: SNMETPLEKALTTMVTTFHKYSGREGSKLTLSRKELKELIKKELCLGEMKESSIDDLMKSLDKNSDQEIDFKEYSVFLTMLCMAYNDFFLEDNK


Assays:
[1] = biological target: T1, human S100A5; test: fluorescence polarisation; displacement of the 5FAM probe peptide by increasing unlabeled peptide; 2.4-4.2 µM protein (monomer) with probe at the same concentration; 50 mM TES, 100 mM NaCl, 0.01% Tween-20, pH 7.4; KD,apparent corrected for the probe; settings: both partners purified
[2] = biological target: human S100A6 (human, UniProt P06703 1-90); test: as above; settings: both partners purified

Kd [1] [µM] | binding result [1] | binding result [2] | Kd [2] [µM] | Binder
> 1000 | – | – | – | SRQTTSTHEWVVGGGSAE (synthetic unlabelled peptide with free N-terminus; C-terminal state not printed. The Methods print the full 18-mer (12-mer + GGGSAE flank, matching the stated library design); the Results form with …) [peptide SRQTTSTHEWVVGGGSAE]
– | binds | binds | – | {5FAM′}-GFDWRWGMEALTGGGSAE (also called fluorescently labeled probe peptide; source: synthetic peptide, bought: Genscript (95% purity)) [probe peptide 5FAM-GFDWRWGMEALTGGGSAE]
2.6 ± 2 | – | – | 12.4 ± 2 | GFDWRWGMEALTGGGSAE (the methods name only the nine test peptides and the probe as ordered from Genscript) [unlabeled probe peptide GFDWRWGMEALTGGGSAE]
